Experimental data as given in patent publication US20230405070A1, “PLECTRANTHUS AMBOINICUS EXTRACT FOR USE IN INHIBITING IMMUNE RESPONSES” (Oneness Biotech Co., Ltd., priority 2022, published 2023).

Tested on: M1 macrophages
Experiment: Recombinant GCSF / CXCL3 co-administered with M1-polarizing cytokines
Format: cell-based, human
Method: For detection of M1 and M2 macrophage markers, cultured cells were suspended then blocked by 20 μL/10^4 of FcR Blocking Reagent (Miltenyi Biotec, Cologne, Germany). Antibodies listed in Table 1 and isotype signal for normalization were listed in Table 3 were used at 5 μL per 10^5 cells.
Cell lysates for immunoblotting were prepared using an M-PER mammalian protein extraction kit containing protease and phosphatase inhibitor cocktail (Thermo-Fisher Scientific). Immunoblotting using the indicated antibodies (listed in Table 1) was performed as described previously (Lu et al., J Immunother Cancer, 2020).
Next, experiments were performed to analyze whether the genes altered by ON101 treatment in diabetic wounds could be produced by ADPCs upon ON101 treatment and focused on candidate genes detected in wound tissues in ON101-treated db/db mice (FIGS. 4E-4F). […] To test whether GCSF and CXCL3 might be involved in the marker switch between M1 and M2 macrophages, recombinant GCSF and CXCL3 proteins, with or without their neutralizing antibodies, were co-administrated with M1-polarizing cytokines. […] Both GCSF- and CXCL3-mediated inductions of M2a/c markers were abolished by the corresponding neutralizing antibodies (FIGS. 8G-8H). In addition, both GCSF and CXCL3 treatments activated Stat3 signaling pathways, whereas GCSF activated Akt phosphorylation, which was again abolished by their corresponding antibodies (FIG. 8I).

[1] = recombinant protein with M1-polarizing cytokines, 48 h

Molecule	Stat3 signaling (immunoblot)	CD163 expression [1]	Akt phosphorylation (immunoblot)	CD206 expression [1]
CXCL3: recombinant CXCL3 protein co-administrated with M1-polarizing cytokines	activated	only induced CD163 expression		
GCSF: recombinant GCSF protein co-administrated with M1-polarizing cytokines (protein, UniProt P09919 31-207, looked up) Granulocyte …: TPLGPASSLPQSFLLKCLEQVRKIQGDGAALQEKLVSECATYKLCHPEELVLLGHSLGIPWAPLSSCPSQALQLAGCLSQLHSGLFLYQGLLQALEGISPELGPTLDTLQLDVADFATTIWQQMEELGMAPALQPTQGAMPAFASAFQRRAGGVLVASHLQSFLEVSYRVLRHLAQP	activated	concentration-dependent increase	activated	concentration-dependent increase
